Tests used:
[1] = biological target: HA H3 top domain (not stated (Figure 2 shows HA of influenza A virus X-31)) (UniProt P03437); assay: ELISA
[2] = biological target: HIV-1 gp120 monomer, strain HxBc2 (HIV-1, strain HxBc2) (UniProt P04578); assay: SPR

Substance | Kd [1] [nM] | Kd [2] [nM]
SUMO-CVN2L0 fusion protein (designed binder) | 554 | –
CVN2L0, engineered linker-free domain-swapped dimer of cyanovirin-N (designed binder) | – | 49
